Test [1] deals with T1, human OX40 on cells (human, UniProt P43489 29-277).
T1 sequence: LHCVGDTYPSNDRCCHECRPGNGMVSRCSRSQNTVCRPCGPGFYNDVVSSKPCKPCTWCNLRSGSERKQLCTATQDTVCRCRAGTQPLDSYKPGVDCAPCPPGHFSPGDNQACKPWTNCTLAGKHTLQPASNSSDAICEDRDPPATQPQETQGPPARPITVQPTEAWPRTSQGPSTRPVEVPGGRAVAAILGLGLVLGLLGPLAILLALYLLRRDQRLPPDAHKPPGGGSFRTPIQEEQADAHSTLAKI
Put plainly: cell-based or functional assay.

Test [2] has as its target T1, human OX40 on cells. Put plainly: cell-based or functional assay. This is another data set of the same source.
Test [3] addresses T2, cynomolgus OX40 on cells (cynomolgus, UniProt P43489 29-277 (human entry)).
T2 construct: also called cynoOX40-CHO
T2 chain: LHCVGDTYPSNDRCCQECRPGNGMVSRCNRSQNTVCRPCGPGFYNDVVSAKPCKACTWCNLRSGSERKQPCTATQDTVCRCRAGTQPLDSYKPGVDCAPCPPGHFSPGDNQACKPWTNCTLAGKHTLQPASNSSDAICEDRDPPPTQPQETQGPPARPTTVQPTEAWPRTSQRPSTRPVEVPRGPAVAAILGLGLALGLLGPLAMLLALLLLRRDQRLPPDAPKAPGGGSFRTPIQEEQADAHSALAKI
The test is described as follows: FACS, activated cyno T cells; mean ± SD, n=3. On the procedure: (§1) Briefly, cells were activated for several days before the binding assay in order to induce OX40 expression. Total leukocytes were isolated from cynomolgus macaque peripheral blood by lysis of red blood cells using an ammonium chloride buffer. The leukocytes were then cultured for four to five days with in flasks pre-coated with anti-human CD3 plus anti-human CD28 antibodies that cross-react with cynomolgus macaque, in the presence of recombinant human IL-2, in order to expand and activate T cells. On the day of the assay, the cells were harvested and stained with a titration of each anti-OX40 antibody. Bound antibodies were detected with a fluorescently conjugated anti-human IgG polyclonal secondary antibody, and the cells were co-stained for CD4 and CD25 to detect activated CD4 T cells. The fluorescence intensity of the staining was measured using a FACSCanto II flow cytometer (Becton Dickinson). The geometric mean fluorescence intensity (GMFI) or median fluorescence intensity (MedFI) of anti-OX40 antibody staining was calculated for the CD4+CD25+ population (FACSDiva software). Dose-response curves were generated and EC50s for antibody binding were calculated using GraphPad Prism software.
(In general: A flow cytometer gives signals particle by particle.)

Test [4] deals with T1, human OX40 on cells. Put plainly: FACS, activated human T cells; mean ± SD, n=5.
Test [5] addresses T1, human OX40 on cells. Put plainly: immunohistochemistry, HT1080/huOX40 cells. The source says: Fresh, frozen and/or OCT-embedded human tissues were purchased from multiple commercial tissue networks/vendors (Asterand Inc. Detroit, Mich.; Cooperative Human Tissue Network, Philadelphia, Pa.; ProteoGenex Inc, Culver City, Calif.). […] A nonspecific fluoresceinated human IgG1 was used as isotype control antibody. HT1080 cells stably expressing human OX40 (HT1080/huOX40) and hyperplasic human tonsil tissue sections were used as positive control cells and tissues. […] Stained slides were evaluated under a light microscope.

Test [6] has as its target T2, cynomolgus OX40 on cells. The test is described as follows: FACS, activated cyno T cells; mean ± SD, n=4. On the procedure:
as §1

Test [7] deals with T1, human OX40 on cells. Put plainly: FACS, activated human T cells; mean ± SD, n=3. The method, then:
Cells were activated for several days before the binding assay in order to induce OX40 expression. Briefly, PBMCs were cultured for three or four days with magnetic beads coated with anti-human CD3 plus anti-human CD28, in the presence of recombinant human IL-2. On the day of the assay, the beads were removed and the cells stained with a titration of each anti-OX40 antibody. Bound antibodies were detected with a fluorescently conjugated anti-human IgG polyclonal secondary antibody, and the cells were co-stained for CD4 and CD25 to detect activated CD4 T cells. The fluorescence intensity of the staining was measured using a FACSCanto II flow cytometer (Becton Dickinson). The geometric mean fluorescence intensity (GMFI) or median fluorescence intensity (MedFI) of anti-OX40 antibody staining was calculated for the CD4+CD25+ population (FACSDiva software). EC₅₀s for antibody binding were calculated using GraphPad Prism software.

In test [8] the target is T3, his-tagged soluble human OX40 (huOX40-6xhis) (human, UniProt P43489 29-214).
T3 construct: made in-house; also called Human-OX40-6XHIS; hOX40; not shown: hexahistidine tag
T3 sequence: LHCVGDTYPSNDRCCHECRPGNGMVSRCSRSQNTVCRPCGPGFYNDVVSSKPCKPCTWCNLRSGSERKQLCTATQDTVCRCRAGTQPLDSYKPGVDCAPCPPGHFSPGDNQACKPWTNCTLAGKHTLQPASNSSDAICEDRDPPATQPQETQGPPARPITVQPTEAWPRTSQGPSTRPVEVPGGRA
Put plainly: SPR, mAb captured on anti-human CH1, OX40-6XHIS analyte, 1:1 fit. On the procedure: The affinity of several OX40 antibodies for soluble human OX40 was tested by SPR analysis. […] Human-OX40-6XHIS antigen in either a single concentration of 400 nM or a 1:2 serial dilution from 400 nM was used. Experiments were carried out on BIACORE® T200 or BIACORE® 3000 SPR instruments. Data was fit to a 1:1 model.
(In general: Surface plasmon resonance follows binding to a sensor surface in real time, without labels.)

Test [9] addresses T1, human OX40 on cells. Put plainly: FACS, blocking of OX40L-His (0.2 µg/mL) binding to hOX40-293 cells. On the procedure:
Briefly, 293 cells stably transfected with human OX40 were first pre-incubated with varying concentrations of anti-OX40 antibodies. […] The fluorescence intensity of the staining was measured using a FACSCanto II flow cytometer (Becton Dickinson).

Test [10] concerns the target T1, human OX40 on cells. The test is described as follows: FACS competition on HT1080-hOX40 cells against APC-OX40.1 (FL2 MFI); the table gives no unit, axis 'Ab conc nM'. The method, then:
(§2) This experiment was performed to test the cross-blocking properties of various anti-OX40 antibodies to assess binding specificities. […] Cells were washed and if necessary further incubated in the presence of streptavidin-APC conjugate under the same conditions. After the final wash, cells were analyzed on a FACSCanto flow cytometer (BD Bioscience, San Jose, Calif.). Mean fluorescence intensity (MFI) signal was proportional to bound conjugated antibody.

Test [11] has as its target T1, human OX40 on cells. Put plainly: FACS competition on hOX40-293 cells against biotin-OX40.5 (spike biotOX.5 @ 0.4 ug/mL, streptavidin-APC); partial inhibition, FL4-MFI falls from about 8700 to about 6400; the table gives no unit, axis in nM. On the procedure:
as §2

In test [12] the target is T2, cynomolgus OX40 on cells. The test is described as follows: FACS, activated cyno CD4 T cells. On the procedure: as §1
The same experiment was performed with anti-OX40 antibodies with variable region substitutions.

The target in test [13] is T1, human OX40 on cells. The test is described as follows: FACS competition on hOX40-293 cells against biotin-OX40.5 (spike biotOX.5 @ 0.4 ug/mL, streptavidin-APC); FL4-MFI falls from about 8700 to about 3800; the table gives no unit, axis in nM. On the procedure: as §2
Test [14] has as its target T1, human OX40 on cells. The test is described as follows: FACS competition on hOX40-293 cells against biotin-OX40.4 (spike biotOX.4 @ 0.4 ug/mL, streptavidin-APC); partial inhibition, FL4-MFI falls from about 12700 to about 8800 at about 130 nM; the table gives no unit, axis in nM. On the procedure:
as §2

Test [15] deals with T1, human OX40 on cells. Put plainly: FACS competition on hOX40-293 cells against biotin-OX40.5 (spike biotOX.5 @ 0.4 ug/mL, streptavidin-APC); FL4-MFI falls from about 8700 to about 2900; the table gives no unit, axis in nM. The method, then:
as §2

Test [16] concerns the target T1, human OX40 on cells. Put plainly: FACS competition on hOX40-293 cells against biotin-OX40.4 (spike biotOX.4 @ 0.4 ug/mL, streptavidin-APC); partial inhibition, FL4-MFI falls from about 12700 to about 6000; the table gives no unit, axis in nM. The method, then:
as §2

This is an account of results in patent publication US20200399385A1 (Bristol-Myers Squibb, published 2020).

Numbering of substitutions follows the chain as printed. “And” between values parts separate entries of the source, which are not always exact repeats. Equal entries are not always repeated.

B1: OX40.16 (antibody, human IgG1, kappa, V domains shown)
VH: EVQLVQSGGGLVQPGGSLRLSCAGSGFTFSSYAMYWVRQAPGKGLEWVSAIDTDGGTFYADSVRGRFTISRDNAKNSLYLQMNSLRAEDTAVYFCARLGEGYFFDYWGQGTLVTVSS
VL: EIVLTQSPATLSLSPGERATLSCRASQSVSSYLAWYQQKPGQAPRLLIYDASNRATGIPARFSGSGSGTDFTLTISSLEPEDFAVYYCQQRSNWPPTFGGGTKVEIKR
Turning to B1, the “EC50 (NK92 cell-mediated ADCC, calcein release)” value with human OX40 on cells [1] is 4 ng/mL. Besides, in the test with human OX40 on cells [2], the “IFNγ EC50, CD4 T cells + CHO-CD3-CD32A” value was found to be 0.044 nM. Moreover, the “Proliferation EC50, CD4 T cells + CHO-CD3-CD32A” value (“Proliferation EC50” below) with human OX40 on cells [2] is 0.017 nM. Besides, the EC50 with cynomolgus OX40 on cells [3] and in the test with human OX40 on cells [4] was 0.06 nM throughout.

B2: OX40.20 (antibody, human IgG1, kappa, V domains shown)
VH: B1 VH with D54S
VL: B1 VL
As for B2, in the test with human OX40 on cells [5], the binding result is recorded as “binds”.

B3: 3F4 (antibody, V domains shown)
VH: QVQLVQSGAEVKKPGASVKVSCKASGNTFTSYDVNWVRQATGQGLEWMGWMNPNSGNTGYAPKFQGRVTMTRNTSISTAYMELSSLRSEDTAVYYCARIYSSSYNWFDPWGQGTLVTVSS
VL: EIVLTQSPATLSLSPGERATLSCRASQSVSSYLAWYQQKPGQAPRLLIYDASNRATGIPARFSGSGSGTDFTLTISSLEPEDFAVYYCQQRSNWPLTFGGGTKVEIK
notes: also called 3F4.G11.D2; 3F4.G11
On to B3, for which the “Proliferation EC50” value with human OX40 on cells [2] was found to be 0.016 nM. Also, the EC50 with cynomolgus OX40 on cells [6] worked out at 0.37 nM; with human OX40 on cells [7] it was 0.19 nM; in the test with human OX40 on cells [9], 0.54 nM; with human OX40 on cells [11] it was 3.71 nM. In test [8], the Kd worked out at 7.13 nM. This molecule also had a koff in test [8] of 0.000379 s⁻¹. The on-rate (kon) in test [8] was found to be 53100 M⁻¹ s⁻¹. The concentration for half-maximal inhibition (IC50) with human OX40 on cells [10] stood at 0.706 nM.

B4: 20C1 (antibody, V domains shown)
VH: B1 VH with V2A, Q13H, G24D, S84G, T90M
VL: B3 VL with L96P
notes: also called 20C1.F2.D1; 20C1.F2
With B4, the “IL-2 EC50, SEB PBMC, soluble crosslinker” value in the test with human OX40 on cells [1] lay in the range of 1.3 to 2 nM. The “Proliferation EC50” value with human OX40 on cells [2] was 0.008 nM. Further, the EC50 with cynomolgus OX40 on cells [12] is 0.068 nM; with cynomolgus OX40 on cells [6], 0.17 nM; with human OX40 on cells [7] it was 0.1 nM; with human OX40 on cells [9], 0.34 nM; with human OX40 on cells [13] it was 6.13 nM; with human OX40 on cells [14], 12.1 nM. The molecule further came in with a Kd in test [8] of 3.22 nM. In test [8], this molecule gave a dissociation rate constant (koff) of 0.000209 s⁻¹. This molecule displayed an on-rate constant (kon) in test [8] of 64800 M⁻¹ s⁻¹.

B5: 20B3 (antibody, V domains shown)
VH: EVQLVESGGGLVQPGGSLRLSCAASGFTFSSYDMHWVRQTTGKGLEWVSVIGTAGDTYYPGSVKGRFTISRENAKNSLYLQMNSLRAGDTAVYYCARGGMGNYFDYWGQGTLVTVSS
VL: B3 VL
notes: also called 20B3.G12.A2; 20B3.G2
As to B5, the “Proliferation EC50” value in the test with human OX40 on cells [2] was 0.008 nM. Moreover, the EC50 is 1.4 nM and 1 nM to 1.5 nM (2×) with cynomolgus OX40 on cells [12]; 1.18 nM with cynomolgus OX40 on cells [6]; 0.34 nM with human OX40 on cells [7]; 0.93 nM with human OX40 on cells [9]; 4.54 nM with human OX40 on cells [15]; 3.86 nM with human OX40 on cells [16]. The dissociation constant Kd in test [8] turned out to be 3.71 nM. For the same molecule, in test [8], the koff came to 0.000201 s⁻¹. The molecule also returned a kon in test [8] of 54200 M⁻¹ s⁻¹. The molecule further had an IC50 with human OX40 on cells [10] of 1.17 nM.

For orientation: EC50 means the concentration giving half of the maximal effect. A lower EC50 goes with greater potency. Broadly, the Kd is a measure of binding affinity in units of concentration. Read a high Kd as a looser complex. A word on the koff: it is a measure of how fast the partners let go of each other. Read a low koff as slow dissociation. As usually defined, the kon is the rate constant with which the complex forms. What is called IC50 is the concentration at which inhibition is half-maximal. The low end stands for greater potency, the high end for weaker potency.
